Source: publication PMC9098846, “Molecular insights into biogenesis of glycosylphosphatidylinositol anchor proteins” (Nature Communications, 2022)

Molecular target: T1, PIGT, subunit of the human GPI transamidase (GPI-T) (human) (UniProt Q969N2)
T1 sequence (chain, disulfide bond from C182 to PIGK C92): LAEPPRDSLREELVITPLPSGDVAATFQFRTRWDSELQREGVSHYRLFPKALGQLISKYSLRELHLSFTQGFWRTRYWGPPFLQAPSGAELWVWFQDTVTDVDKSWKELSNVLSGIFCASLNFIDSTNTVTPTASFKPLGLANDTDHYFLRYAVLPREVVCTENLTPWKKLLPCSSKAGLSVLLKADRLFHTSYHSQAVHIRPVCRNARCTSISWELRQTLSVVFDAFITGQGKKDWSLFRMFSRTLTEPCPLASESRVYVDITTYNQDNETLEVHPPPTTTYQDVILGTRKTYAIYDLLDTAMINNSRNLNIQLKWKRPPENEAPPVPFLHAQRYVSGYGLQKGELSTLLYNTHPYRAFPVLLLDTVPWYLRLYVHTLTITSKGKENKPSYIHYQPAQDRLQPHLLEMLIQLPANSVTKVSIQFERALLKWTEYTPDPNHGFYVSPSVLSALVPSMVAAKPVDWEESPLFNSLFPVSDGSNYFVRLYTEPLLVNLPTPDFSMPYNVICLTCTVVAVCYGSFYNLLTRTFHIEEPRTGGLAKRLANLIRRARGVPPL

B1: PIGK C92A (enzyme)
chain: SHIEDQAEQFFRSGHTNNWAVLVCTSRFWFNYRHVANTLSVYRSVKRLGIPDSHIVLMLADDMAANPRNPKPATVFSHKNMELNVYGDDVEVDYRSYEVTVENFLRVLTGRIPPSTPRSKRLLSDDRSNILIYMTGHGGNGFLKFQDSEEITNIELADAFEQMWQKRRYNELLFIIDTCQGASMYERFYSPNIMALASSQVGEDSLSHQPDPAIGVHLMDRYTFYVLEFLEEINPASQTNMNDLFQVCPKSLCVSTPGHRTDLFQRDPKNVLITDFFGSVRKVEITTETIKLQQDSEIMESSYKEDQMDEKLMEPLKYAEQLPVAQIIHQKPKLKDWHPPGGFILGLWALIIMVFFKTYGIKHMKFIF
- apparent GPI-T activity: surface staining of the reporter GPI-AP CD59 on PIGK knockout cells by flow cytometry, compared to the wild-type PIGK (% of wild-type): 61
